The values that follow come from article PMC5581047.

This assay has as its target GST-ERα (179-312), C/D domains (UniProt P03372). Briefly: pull-down; GST-ERα domains or full length bound to glutathione-Sepharose 4B beads, incubated with recombinant Api5 protein; Western blot. A general note: A western blot detects proteins with antibodies after separation by electrophoresis.

B1: Recombinant Api5 protein (natural protein)
chain: MPTVEELYRNYGILADATEQVGQHKDAYQVILDGVKGGTKEKRLAAQFIPKFFKHFPELADSAINAQLDLCEDEDVSIRRQAIKELPQFATGENLPRVADILTQLLQTDDSAEFNLVNNALLSIFKMDAKGTLGGLFSQILQGEDIVRERAIKFLSTKLKTLPDEVLTKEVEELILTESKKVLEDVTGEEFVLFMKILSGLKSLQTVSGRQQLVELVAEQADLEQTFNPSDPDCVDRLLQCTRQAVPLFSKNVHSTRFVTYFCEQVLPNLGTLTTPVEGLDIQLEVLKLLAEMSSFCGDMEKLETNLRKLFDKLLEYMPLPPEEAENGENAGNEEPKLQFSYVECLLYSFHQLGRKLPDFLTAKLNAEKLKDFKIRLQYFARGLQVYIRQLRLALQGKTGEALKTEENKIKVVALKITNNINVLIKDLFHIPPSYKSTVTLSWKPVQKVEIGQKRASEDTTSGSPPKKSSAGPKRDARQIYNPPSGKYSSNLGNFNYEQRGAFRGSRGGRGWGTRGNRSRGRLY
Regarding B1, the percent of the binding of Api5 to full length GST-ERα (1-595) is more than 60%.
